EP4778941A1, “HER3/MET BINDING MOLECULE AND PHARMACEUTICAL USE THEREOF” (priority 2023, dated 2025)
Read-outs that look alike come from different tables or passages of the source.

Experiments:
[1] = molecular target: Human HER3 and MET proteins together on HER3/MET double-positive cells (human) (UniProt P21860); test: cell-based or functional assay
[2] = molecular target: Human HER3 protein on the cell surface (human) (UniProt P21860); test: cell-based or functional assay
[3] = molecular target: Human MET protein on the cell surface (human) (UniProt P08581); test: cell-based or functional assay
[4] = molecular target: Human HER3 and MET proteins together on HER3/MET double-positive cells (human) (UniProt P21860); test: cell-based or functional assay; remark: listed apart in the source
[5] = molecular target: Human MET protein on the cell surface (human) (UniProt P08581); test: FACS on NCI-H1703 cells (MET single-positive)
[6] = molecular target: Human HER3 protein on the cell surface (human) (UniProt P21860); test: FACS on MDA-MB-453 cells (HER3 single-positive)
[7] = molecular target: Human HER3 and MET proteins together on HER3/MET double-positive cells (human) (UniProt P21860); test: FACS on HCC827 Osimertinib-resistant cells (HER3/MET double-positive)

Chain of Human MET protein on the cell surface (human) (P08581 25-1390): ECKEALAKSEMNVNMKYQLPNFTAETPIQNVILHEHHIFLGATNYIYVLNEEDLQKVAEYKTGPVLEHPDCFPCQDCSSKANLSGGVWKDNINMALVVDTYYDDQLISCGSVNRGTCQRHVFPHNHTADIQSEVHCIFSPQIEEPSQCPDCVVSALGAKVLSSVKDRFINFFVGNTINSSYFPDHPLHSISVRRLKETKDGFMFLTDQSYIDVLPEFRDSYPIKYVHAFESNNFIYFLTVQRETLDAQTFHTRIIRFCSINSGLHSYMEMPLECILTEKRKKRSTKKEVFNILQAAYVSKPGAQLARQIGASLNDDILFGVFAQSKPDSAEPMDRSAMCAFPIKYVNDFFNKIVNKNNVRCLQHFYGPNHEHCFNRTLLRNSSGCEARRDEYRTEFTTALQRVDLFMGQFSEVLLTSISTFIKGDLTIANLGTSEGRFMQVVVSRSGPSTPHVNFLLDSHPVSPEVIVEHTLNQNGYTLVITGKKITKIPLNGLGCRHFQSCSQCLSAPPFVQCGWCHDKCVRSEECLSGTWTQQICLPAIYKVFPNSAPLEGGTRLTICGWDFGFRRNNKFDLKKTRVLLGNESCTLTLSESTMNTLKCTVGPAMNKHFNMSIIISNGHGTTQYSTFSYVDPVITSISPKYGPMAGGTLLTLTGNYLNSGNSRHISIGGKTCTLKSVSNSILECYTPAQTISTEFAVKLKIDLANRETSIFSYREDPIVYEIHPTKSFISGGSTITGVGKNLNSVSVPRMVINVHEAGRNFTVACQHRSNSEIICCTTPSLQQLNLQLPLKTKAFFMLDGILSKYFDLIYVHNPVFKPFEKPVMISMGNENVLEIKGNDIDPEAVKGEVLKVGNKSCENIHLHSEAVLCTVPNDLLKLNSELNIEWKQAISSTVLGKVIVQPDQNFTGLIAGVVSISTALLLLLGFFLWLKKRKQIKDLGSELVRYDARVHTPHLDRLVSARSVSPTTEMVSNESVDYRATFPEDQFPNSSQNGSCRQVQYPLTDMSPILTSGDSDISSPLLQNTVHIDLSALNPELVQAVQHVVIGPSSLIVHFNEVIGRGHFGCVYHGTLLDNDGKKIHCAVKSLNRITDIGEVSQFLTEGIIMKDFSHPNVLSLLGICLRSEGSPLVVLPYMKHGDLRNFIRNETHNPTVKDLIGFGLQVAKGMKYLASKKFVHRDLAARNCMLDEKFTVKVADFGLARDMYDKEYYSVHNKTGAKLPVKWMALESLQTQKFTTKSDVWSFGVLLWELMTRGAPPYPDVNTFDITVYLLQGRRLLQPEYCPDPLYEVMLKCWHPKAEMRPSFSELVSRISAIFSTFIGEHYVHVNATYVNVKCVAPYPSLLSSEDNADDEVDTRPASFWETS

Maximum fluorescence value [5]: 74 | Maximum fluorescence value [6]: 74 | Maximum fluorescence value [7]: 74
Substance: IgG1 isotype control antibody
Minimum cell viability (%) [1]: 90.9% | Minimum cell viability (%) [2]: 92.9% | Minimum cell viability (%) [3]: 78.6% | Minimum cell viability (%) [4]: 102%
